Here are results for nine variants from FireProtDB (doi:10.1021/bi992257j).

By Tm is commonly meant the temperature at the midpoint of the melting transition.

The chains are these.
B1: Rubredoxin, P24297 (parent)
chain: MAKWVCKICGYIYDEDAGDPDNGISPGTKFEELPDDWVCPICGAPKSEFEKLED

In the data set the parent is B1. The note with it: Pyrococcus furiosus (strain ATCC 43587 / DSM 3638 / JCM 8422 / Vc1), pH 6.3, CD, Sodium phosphate 50 mM, reversible: yes, structure 1BRF, whole UniProt chain shown; for denaturant m value / denaturant midpoint (higher = more stable) / unfolding free energy: 1 °C; for Tm: Thermal.

Turning to MAKWVLKITGYIYDEDAGDPDNGISPGTKFEELPDDWVAPITGAPKSEFEKLED, the Tm amounted to 82 °C. For the setting “GdnHCl”, the denaturant m value stood at 1.9 kcal/mol/M, the “denaturant midpoint (higher = more stable)” value (shortened to “denaturant midpoint”) worked out at 1.68 M and the unfolding free energy was determined as 3.2 kcal/mol.
As for MQKWVLKITGYIYDEDAGDPDNGISPGTKFEELPDDWVAPITGAPKSEFEKLED, the Tm was 63 °C. Moreover, where the note is “Urea”, the denaturant m value came to 0.93 kcal/mol/M, the “denaturant midpoint” value was found to be 3.8 M and the unfolding free energy was found to be 3.5 kcal/mol.
In the case of MQKWVLKITGYIYDQDAGDPDNGISPGTKFEELPDDWVAPITGAPKSEFEKLED, the Tm stood at 39 °C. Moreover, for the setting “GdnHCl”, the denaturant m value is 3 kcal/mol/M, the “denaturant midpoint” value was determined as 0.5 M and the unfolding free energy worked out at 1.5 kcal/mol. Under “Urea”, the denaturant m value was 1.03 kcal/mol/M, the “denaturant midpoint” value came to 2 M and the unfolding free energy was found to be 2.1 kcal/mol.
For the variant MQKWVLKITGYIYDTDAGDPDNGISPGTKFEELPDDWVAPITGAPKSEFEKLED, the Tm stood at 41 °C. Where the note is “Urea”, the denaturant m value turned out to be 1.03 kcal/mol/M, the “denaturant midpoint” value amounted to 1.6 M and the unfolding free energy came out at 1.7 kcal/mol.
Regarding MAKWVLAITGYIYDEDAGDPDNGISPGTKFEELPDDWVAPITGAPKSEFEKLED, the Tm was determined as 74 °C. Where the note is “GdnHCl”, the denaturant m value came out at 2 kcal/mol/M, the “denaturant midpoint” value came out at 1.6 M and the unfolding free energy came to 3.2 kcal/mol. Besides, under “Urea”, the denaturant m value came out at 0.81 kcal/mol/M, the “denaturant midpoint” value was 4.9 M and the unfolding free energy was 4 kcal/mol.
For MAKWVLKITGYIYDEDAGDPDNGISPGTKFEELPDDWVAPITGAPKSEFAKLED, the Tm turned out to be 77 °C. Also, under “GdnHCl”, the denaturant m value was 2.3 kcal/mol/M, the “denaturant midpoint” value was 1.35 M and the unfolding free energy was determined as 3.1 kcal/mol. For the same variant, under “Urea”, the denaturant m value was found to be 0.86 kcal/mol/M, the “denaturant midpoint” value came to 4.8 M and the unfolding free energy came out at 4.1 kcal/mol.
Turning to MAKWVLKITGYIYDQDAGDPDNGISPGTKFEELPDDWVAPITGAPKSEFEKLED, the Tm turned out to be 57 °C. Besides, where the note is “GdnHCl”, the denaturant m value was 2.5 kcal/mol/M, the “denaturant midpoint” value came to 0.63 M and the unfolding free energy is 1.7 kcal/mol. For the setting “Urea”, the denaturant m value is 0.91 kcal/mol/M, the “denaturant midpoint” value is 3 M and the unfolding free energy amounted to 2.7 kcal/mol.
For MAKWVLKITGYIYDTDAGDPDNGISPGTKFEELPDDWVAPITGAPKSEFEKLED, the Tm was found to be 38 °C. Where the note is “Urea”, the denaturant m value was 0.98 kcal/mol/M, the “denaturant midpoint” value amounted to 1.3 M and the unfolding free energy came to 1.3 kcal/mol.
Consider MAKWVLAITGYIYDEDAGDPDNGISPGTKFEELPDDWVAPITGAPKSEFAKLED, for which the Tm was determined as 74 °C. For the same variant, under “GdnHCl”, the denaturant m value came out at 2.2 kcal/mol/M, the “denaturant midpoint” value was 1.27 M and the unfolding free energy worked out at 2.8 kcal/mol. In addition, under “Urea”, the denaturant m value amounted to 0.84 kcal/mol/M, the “denaturant midpoint” value came to 4.5 M and the unfolding free energy turned out to be 3.8 kcal/mol.
